Tests used:
[1] = target: NF-ATp XS + c-Fos + c-Jun (UniProt Q60591;P12841;P17325 Q60591:400-863,P12841:1-380,P17325:1-334); experiment: EMSA; Fos-Jun-NF-ATp complex; competed by AP-1 oligonucleotide; c-Fos alone does not associate; conditions: tags: His6 on NF-ATp XS; full-length c-Fos and c-Jun; label: 32P
Protocol: (§1) Figure 12: FIG. 12 is a photograph of an EMSA gel. Binding of a recombinant fragment of NF-AT_p (NF-AT_pXS) to target DNA and association of the recombinant NF-AT_p fragment with Fos and Jun proteins was evaluated. The binding of the recombinant fragment of murine NF-AT_p to the distal NF-AT site of the murine IL-2 promoter was assessed by EMSA in the presence or absence of a 200-fold excess of unlabelled competitor oligonucleotides as shown in Lane 1–5. The arrows indicate two DNA-protein complexes formed with NF-AT_pXS. Full-length recombinant c-Fos and c-Jun proteins were included in the same binding reactions, as shown in Lanes 7–9. The open arrows indicate Jun—Jun-NF-AT_pXS complexes, while the closed arrows indicate Fos-Jun-NF-AT_pXS complexes.

c-Fos + c-Jun = c-Fos + c-Jun (UniProt P12841;P17325 P12841:1-380,P17325:1-334); experiment: EMSA; no NF-ATp present; conditions: tags: full-length; label: 32P
c-Fos + c-Jun, sequence (P12841 whole entry, chain 1 of 2): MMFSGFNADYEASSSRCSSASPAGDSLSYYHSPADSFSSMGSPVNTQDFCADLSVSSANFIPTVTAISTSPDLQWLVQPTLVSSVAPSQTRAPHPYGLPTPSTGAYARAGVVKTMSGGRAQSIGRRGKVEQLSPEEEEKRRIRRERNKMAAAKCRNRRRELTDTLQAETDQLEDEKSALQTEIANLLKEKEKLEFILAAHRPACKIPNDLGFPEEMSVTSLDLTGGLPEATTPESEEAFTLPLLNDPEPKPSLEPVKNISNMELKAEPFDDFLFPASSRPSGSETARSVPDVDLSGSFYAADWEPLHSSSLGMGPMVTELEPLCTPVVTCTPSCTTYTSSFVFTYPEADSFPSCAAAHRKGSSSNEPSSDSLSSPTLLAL
c-Fos + c-Jun, sequence (P17325 whole entry, chain 2 of 2): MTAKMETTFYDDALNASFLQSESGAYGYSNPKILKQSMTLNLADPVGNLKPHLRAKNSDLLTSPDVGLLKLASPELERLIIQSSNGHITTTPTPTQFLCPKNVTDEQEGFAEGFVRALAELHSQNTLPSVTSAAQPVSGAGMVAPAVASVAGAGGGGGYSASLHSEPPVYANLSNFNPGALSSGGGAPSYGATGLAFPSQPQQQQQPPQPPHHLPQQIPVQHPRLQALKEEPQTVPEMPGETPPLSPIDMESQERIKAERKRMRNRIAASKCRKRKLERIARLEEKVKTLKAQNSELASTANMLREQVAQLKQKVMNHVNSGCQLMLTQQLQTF
Protocol: as §1

[2] = target: NF-ATp (T cell) + c-Fos + c-Jun (UniProt Q60591;P12841;P17325 Q60591:1-927,P12841:1-380,P17325:1-334); experiment: EMSA; upper complex with partially purified NF-ATp; not seen with c-Fos only; conditions: tags: native NF-ATp with recombinant c-Fos and c-Jun; label: 32P
NF-ATp (T cell) + c-Fos + c-Jun, sequence (Q60591 whole entry, chain 1 of 3, the tested form may be a part): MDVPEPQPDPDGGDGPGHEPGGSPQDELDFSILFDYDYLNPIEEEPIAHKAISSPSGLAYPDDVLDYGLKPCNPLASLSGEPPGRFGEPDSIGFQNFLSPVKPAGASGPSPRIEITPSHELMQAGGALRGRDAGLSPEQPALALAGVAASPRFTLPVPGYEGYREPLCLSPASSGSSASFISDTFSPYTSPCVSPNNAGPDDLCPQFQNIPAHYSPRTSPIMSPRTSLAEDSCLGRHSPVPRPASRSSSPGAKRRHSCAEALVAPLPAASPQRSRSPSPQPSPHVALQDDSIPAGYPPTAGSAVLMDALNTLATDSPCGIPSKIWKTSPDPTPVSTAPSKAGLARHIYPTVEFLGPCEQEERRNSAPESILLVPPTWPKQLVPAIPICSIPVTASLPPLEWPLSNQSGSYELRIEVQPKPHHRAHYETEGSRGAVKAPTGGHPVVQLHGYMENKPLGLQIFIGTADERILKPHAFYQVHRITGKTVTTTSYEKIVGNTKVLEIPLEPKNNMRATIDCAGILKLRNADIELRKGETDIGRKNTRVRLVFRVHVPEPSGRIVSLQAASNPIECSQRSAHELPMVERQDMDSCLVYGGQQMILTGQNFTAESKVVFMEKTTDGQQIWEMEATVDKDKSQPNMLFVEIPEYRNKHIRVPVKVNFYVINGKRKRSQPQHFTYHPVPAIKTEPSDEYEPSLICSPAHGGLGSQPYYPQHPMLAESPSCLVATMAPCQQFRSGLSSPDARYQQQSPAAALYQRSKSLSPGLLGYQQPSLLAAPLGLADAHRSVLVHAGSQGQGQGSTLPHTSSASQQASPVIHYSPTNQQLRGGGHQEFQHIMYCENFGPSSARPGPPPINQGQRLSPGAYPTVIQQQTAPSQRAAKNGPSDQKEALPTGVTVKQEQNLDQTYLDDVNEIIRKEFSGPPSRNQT
NF-ATp (T cell) + c-Fos + c-Jun, sequence (P12841 whole entry, chain 2 of 3, the tested form may be a part): as the sequence (P12841 whole entry, chain 1 of 2) above
NF-ATp (T cell) + c-Fos + c-Jun, sequence (P17325 whole entry, chain 3 of 3, the tested form may be a part): as the sequence (P17325 whole entry, chain 2 of 2) above
Protocol: Figure 7: FIG. 7 is a photograph of an EMSA gel showing the results of an EMSA. […] Partially purified NF-AT_p was incubated with labeled oligonucleotide corresponding to the distal NF-AT site of the murine IL-2 promoter, either alone (lanes 1, 7, 13), with full length or truncated (T) recombinantly produced c-Fos and c-Jun proteins (lanes 2–5 and 8–11, respectively) or with an equivalent concentration of bovine serum albumin. Lane 5 contained 50% more c-Fos and c-Jun compared to lane 4. Lanes 11–13 contain half the amount of NF-AT_p compared to lanes 1–10. […] Bound complexes were separated from free probe by EMSA. The position of free probe, of the lower (NF-AT_p) complex and upper (NF-AT_p-Fos-Jun) complex are indicated.

[3] = target: T1, NF-ATp (purified from Cl.7W2 T cells) (Mus musculus, UniProt Q60591 SEQ:1-890); experiment: EMSA; purified 120 kDa protein, renatured from gel; conditions: tags: native; label: 32P
T1 chain: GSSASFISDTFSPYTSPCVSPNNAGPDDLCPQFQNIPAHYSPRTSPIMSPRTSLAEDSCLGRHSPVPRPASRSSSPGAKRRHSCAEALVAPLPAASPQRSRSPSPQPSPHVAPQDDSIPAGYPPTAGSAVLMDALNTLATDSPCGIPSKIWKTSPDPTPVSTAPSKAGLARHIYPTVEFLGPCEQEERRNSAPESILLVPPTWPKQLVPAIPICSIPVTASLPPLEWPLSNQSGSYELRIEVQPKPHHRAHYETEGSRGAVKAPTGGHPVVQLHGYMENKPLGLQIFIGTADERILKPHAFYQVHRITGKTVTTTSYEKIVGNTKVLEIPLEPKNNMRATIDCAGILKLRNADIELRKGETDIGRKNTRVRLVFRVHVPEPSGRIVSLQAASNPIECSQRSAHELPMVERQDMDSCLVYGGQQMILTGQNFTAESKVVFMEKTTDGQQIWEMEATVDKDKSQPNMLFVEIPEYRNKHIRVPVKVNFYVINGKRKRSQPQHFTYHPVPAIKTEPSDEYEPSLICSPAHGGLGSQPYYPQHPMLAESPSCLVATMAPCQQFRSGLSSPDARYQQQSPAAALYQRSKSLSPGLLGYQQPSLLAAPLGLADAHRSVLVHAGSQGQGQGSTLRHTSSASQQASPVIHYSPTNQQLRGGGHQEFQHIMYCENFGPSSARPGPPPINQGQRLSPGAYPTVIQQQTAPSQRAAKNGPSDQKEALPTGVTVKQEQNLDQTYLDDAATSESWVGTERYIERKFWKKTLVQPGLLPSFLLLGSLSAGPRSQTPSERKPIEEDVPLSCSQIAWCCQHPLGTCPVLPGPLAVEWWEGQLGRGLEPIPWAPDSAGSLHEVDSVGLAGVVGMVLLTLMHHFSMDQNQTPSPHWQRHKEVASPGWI
Protocol: EMSAs were performed using 18 μl of renatured proteins in a 30 μl mix containing 4 mM Hepes, pH 7.4, 84 mM NaCl, 20 mM KCl, 0.08 mM EDTA, 9% glycerol, 0.7 mg/ml BSA, 17 μg/ml poly(dI:dC) and 0.125 ng of ^32P-labelled oligonucleotide. For competition assays, a 200-fold excess of unlabeled oligonucleotide was added to the reaction. The reactions were incubated for 15 minutes at room temperature followed by electrophoresis at 4° C. on 4% Tris/borate/EDTA/acrylamide gels. The NF-AT oligonucleotide used had the sequence GCCCAAAGAG-GAAAATTTGTTTCATACAG (SEQ ID NO:1), corresponding to the distal NF-AT site from the murine IL-2 promoter (nucleotides −295 to −267 relative to the transcription start site, (Serfling, E., Barthelmas, R., Pfeuffer, I., Schenk, B., Zarius, S., Swoboda, R., Mercurio, F., and Karin, M. (1989) *EMBO J.* 8, 465–473)). Oligonucleotides bearing mutations in the NF-AT site were as follows: M1, […] (SEQ ID NO:2); M2, […] (SEQ ID NO:3); M3, […] […]
Figure 8: FIG. 8 is a photograph of an EMSA gel showing an analysis of NF-AT_p by renaturation of NF-AT_p activity following purification of the protein using SDS-polyacrylamide gel electrophoresis. […] After electrophoresis, the gel was sliced, proteins were eluted from gel slices and renatured, and the fractionated proteins were evaluated in an EMSA for their ability to bind to the NF-AT site of the murine IL-2 promoter.

[4] = target: T2, NF-ATp XS (464-aa recombinant fragment of murine NF-ATp) (Mus musculus, UniProt Q60591 SEQ:226-689); experiment: EMSA; two complexes; self-competed by 200-fold excess; methylation interference shows GGAA core required; conditions: label: 32P
T2 chain: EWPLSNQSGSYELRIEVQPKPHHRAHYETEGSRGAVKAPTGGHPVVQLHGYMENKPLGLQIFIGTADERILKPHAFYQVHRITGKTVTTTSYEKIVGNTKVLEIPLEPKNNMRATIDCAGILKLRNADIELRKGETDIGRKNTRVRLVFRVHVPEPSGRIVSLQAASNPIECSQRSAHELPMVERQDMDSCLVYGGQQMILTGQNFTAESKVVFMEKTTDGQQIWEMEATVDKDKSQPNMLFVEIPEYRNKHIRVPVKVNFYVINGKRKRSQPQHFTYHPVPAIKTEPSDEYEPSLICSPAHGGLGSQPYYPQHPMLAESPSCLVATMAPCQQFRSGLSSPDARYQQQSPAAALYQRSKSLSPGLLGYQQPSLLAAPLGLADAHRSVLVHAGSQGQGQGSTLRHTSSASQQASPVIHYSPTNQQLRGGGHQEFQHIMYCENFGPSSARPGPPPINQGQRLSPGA
Protocol: (§2) EMSAs were performed using 18 μl of renatured proteins in a 30 μl mix containing 4 mM Hepes, pH 7.4, 84 mM NaCl, 20 mM KCl, 0.08 mM EDTA, 9% glycerol, 0.7 mg/ml BSA, 17 μg/ml poly(dI:dC) and 0.125 ng of ^32P-labelled oligonucleotide. For competition assays, a 200-fold excess of unlabeled oligonucleotide was added to the reaction. The reactions were incubated for 15 minutes at room temperature followed by electrophoresis at 4° C. on 4% Tris/borate/EDTA/acrylamide gels. The NF-AT oligonucleotide used had the sequence GCCCAAAGAG-GAAAATTTGTTTCATACAG (SEQ ID NO:1), corresponding to the distal NF-AT site from the murine IL-2 promoter (nucleotides −295 to −267 relative to the transcription start site, (Serfling, E., Barthelmas, R., Pfeuffer, I., Schenk, B., Zarius, S., Swoboda, R., Mercurio, F., and Karin, M. (1989) *EMBO J.* 8, 465–473)). Oligonucleotides bearing mutations in the NF-AT site were as follows: M1, […] (SEQ ID NO:2); M2, […] […]
(§3) Figure 12: FIG. 12 is a photograph of an EMSA gel. Binding of a recombinant fragment of NF-AT_p (NF-AT_pXS) to target DNA and association of the recombinant NF-AT_p fragment with Fos and Jun proteins was evaluated. The binding of the recombinant fragment of murine NF-AT_p to the distal NF-AT site of the murine IL-2 promoter was assessed by EMSA in the presence or absence of a 200-fold excess of unlabelled competitor oligonucleotides as shown in Lane 1–5. […]

NF-ATp XS + c-Jun = NF-ATp XS + c-Jun (UniProt Q60591;P17325 Q60591:400-863,P17325:1-334); experiment: EMSA; slower-migrating Jun-Jun-NF-ATp complex; conditions: tags: His6 on NF-ATp XS; full-length c-Jun; label: 32P
NF-ATp XS + c-Jun, sequence (P17325 whole entry, one chain of several): as the sequence (P17325 whole entry, chain 2 of 2) above
Protocol: as §1

[5] = target: T2, NF-ATp XS (464-aa recombinant fragment …); experiment: competition; 200-fold excess competes as strongly as wild type
Protocol: as §2, §3

[6] = target: T2, NF-ATp XS (464-aa recombinant fragment …); experiment: competition; 200-fold excess does not compete
Protocol: as §2, §3

NF-ATp XS + c-Fos + c-Jun, sequence (P12841 whole entry, chain 2 of 2, the tested form may be a part): as the sequence (P12841 whole entry, chain 1 of 2) above
NF-ATp XS + c-Fos + c-Jun, sequence (P17325 whole entry, chain 3 of 2, the tested form may be a part): as the sequence (P17325 whole entry, chain 2 of 2) above

B1: NF-AT oligonucleotide (distal NF-AT site, murine IL-2 promoter) (dsDNA)
DNA 1: GCCCAAAGAGGAAAATTTGTTTCATACAG
DNA 2: CTGTATGAAACAAATTTTCCTCTTTGGGC
- binding result [1]: binds
- binding result (c-Fos + c-Jun): no binding
- binding result [2]: binds
- binding result [3]: binds
- binding result [4]: binds
- binding result (NF-ATp XS + c-Jun): binds

B2: M1 (dsDNA)
DNA 1: GCCCAAAGAGGAAAATTTGTTTATATCAG
DNA 2: CTGATATAAACAAATTTTCCTCTTTGGGC
- binding result [5]: binds

B3: M3 (dsDNA)
DNA 1: GCCCAAAGACCTTAATTTGTTTCATACAG
DNA 2: CTGTATGAAACAAATTAAGGTCTTTGGGC
- binding result [6]: no binding

— patent US5656452A, “NF-ATp, ' a T lymphocyte DNA-binding protein” (President and Fellows of Harvard College, priority 1993, dated 1997)
